The values below come from article PMC9359109.

Assay [1] addresses HLA-B*27:05 single chain trimer (SCT): NP 383-391 peptide - linker - human beta-2 microglobulin - linker - HLA-B*27:05 heavy chain - V5 (influenza virus | human). Nature of the assay: non-reducing two-dimensional isoelectric focusing gel electrophoresis and immunoblot of immunoprecipitates; anti-tapasin immunoprecipitates resolved by charge and then by non-reducing SDS-PAGE, immunoblot with anti-V5. On the technique in general: Immunoblotting shows a protein as a band on a membrane.

Assay [2] has the same target. Nature of the assay: non-reducing two-dimensional isoelectric focusing gel electrophoresis and immunoblot; 1% NP40 lysates resolved by charge in the first dimension and by non-reducing SDS-PAGE in the second, immunoblot with anti-V5; monomers and dimers compared by pI.
The target in assay [3] is HLA-B*27:05 class I heavy chain (HC), V5 tagged (human). Nature of the assay: non-reducing two-dimensional isoelectric focusing gel electrophoresis and immunoblot of immunoprecipitates; anti-tapasin immunoprecipitates resolved by charge and then by non-reducing SDS-PAGE, immunoblot with anti-V5.
Assay [4] has the same target. Description: non-reducing two-dimensional isoelectric focusing gel electrophoresis and immunoblot; 1% NP40 lysates resolved by charge in the first dimension and by non-reducing SDS-PAGE in the second, immunoblot with anti-V5; monomers and dimers compared by pI.

What is called stoichiometry N is a count of units in the complex or per binding partner. “HLA-B*27:05 single chain trimer (SCT): NP 383-391 peptide - linker - human beta-2 microglobulin - linker - HLA-B*27:05 heavy chain - V5 (from UniProt P61769 21-119) (peptide-MHC)”: the stoichiometry N in assay [1] and in assay [2] was 2 each time.
Consider “HLA-B*27:05 class I heavy chain (HC), V5 tagged (natural protein)”, for which the stoichiometry N in assay [3] and in assay [4] was 2 in each case.
